Measurements: patent US8501692 (REGENTS OF THE UNIVERSITY OF MICHIGAN, dated 2013)

Target: the molecule itself
Experiment: SDS-PAGE after oxidation with CuCl2
Description: Oxidation: Purified proteins were oxidized in 50 mM Tris pH 8.0 buffer containing 100 μm CuCl_2 overnight at 4° C. CuCl_2 was then removed by chelating it by adding 1 mM EDTA to the above mixture. Protein was further purified by passing it through Q Sepharose column and eluting off the column with 150-500 mM NaCl gradient. Fractions containing purified oxidized protein were identified by running on a SDS-PAGE gel under non-reducing conditions and pooled and concentrated to 5 mg/ml and snap frozen in liq N_2 and stored at −80° C.

Row | Protein | binding result
1 | G4C/S10C/T172R/G173Q CocE with H6 tag (enzyme, oxidized with CuCl2: disulfide bridge between Cys 4 of one monomer and Cys 10 of the other monomer, Cloned and expressed like the CC mutant (C-terminal His tag); Cross-linked homodimer; also called CCRQ; CCRQ-CocE) MVDCNYSVACNVMVPMRDGVRLAVDLYRPDADGPVPVLLVRNPYDKFDVFAWSTQSTNWLEFVRDGYAVVIQDTRGLFASEGEFVPHVDDEADAEDTLSWILEQAWCDGNVGMFGVSYLGVTQWQAAVSGVGGLKAIAPSMASADLYRAPWYGPGGALSVEALLGWSALIGRQLITSRSDARPEDAADFVQLAAILNDVAGAASVTPLAEQPLLGRLIPWVIDQVVDHPDNDESWQSISLFERLGGLATPALITAGWYDGFVGESLRTFVAVKDNADARLVVGPWSHSNLTGRNADRKFGIAATYPIQEATTMHKAFFDRHLRGETDALAGVPKVRLFVMGIDEWRDETDWPLPDTAYTPFYLGGSGAANTSTGGGTLSTSISGTESADTYLYDPADPVPSLGGTLLFHNGDNGPADQRPIHDRDDVLCYSTEVLTDPVEVTGTVSARLFVSSSAVDTDFTAKLVDVFPDGRAIALCDGIVRMRYRETLVNPTLIEAGEIYEVAIDMLATSNVFLPGHRIMVQVSSSNFPKYDRNSNTGGVIAREQLEEMCTAVNRIHRGPEHPSHIVLPIIKRKLAAALEHHHHHH | binds
2 | G4C/S10C/L169K/G173Q CocE with H6 tag (enzyme, oxidized with CuCl2: disulfide bridge between Cys 4 of one monomer and Cys 10 of the other monomer, Cloned and expressed like the CC mutant (C-terminal His tag); Cross-linked homodimer; also called CCKQ; CCKQ tetramutant) MVDCNYSVACNVMVPMRDGVRLAVDLYRPDADGPVPVLLVRNPYDKFDVFAWSTQSTNWLEFVRDGYAVVIQDTRGLFASEGEFVPHVDDEADAEDTLSWILEQAWCDGNVGMFGVSYLGVTQWQAAVSGVGGLKAIAPSMASADLYRAPWYGPGGALSVEALLGWSAKIGTQLITSRSDARPEDAADFVQLAAILNDVAGAASVTPLAEQPLLGRLIPWVIDQVVDHPDNDESWQSISLFERLGGLATPALITAGWYDGFVGESLRTFVAVKDNADARLVVGPWSHSNLTGRNADRKFGIAATYPIQEATTMHKAFFDRHLRGETDALAGVPKVRLFVMGIDEWRDETDWPLPDTAYTPFYLGGSGAANTSTGGGTLSTSISGTESADTYLYDPADPVPSLGGTLLFHNGDNGPADQRPIHDRDDVLCYSTEVLTDPVEVTGTVSARLFVSSSAVDTDFTAKLVDVFPDGRAIALCDGIVRMRYRETLVNPTLIEAGEIYEVAIDMLATSNVFLPGHRIMVQVSSSNFPKYDRNSNTGGVIAREQLEEMCTAVNRIHRGPEHPSHIVLPIIKRKLAAALEHHHHHH | binds
